{
  "source": "paper PMC11794977",
  "about": "“Inhibitory Potential and Binding Thermodynamics of Scyllatoxin‐Based BH3 Domain Mimetics Targeting Repressor BCL2 Proteins” (Journal of Molecular Recognition, 2025)",
  "key": {"[1]": {"target": "T1, Bcl‐2‐ΔTM (recombinant His‐tagged Bcl‐2 without its transmembrane domain)", "T1 construct": "also called Bcl‐2 (proper); Bcl‐2‐ΔTM proteins", "test": "fluorescence polarisation; competition: 100 nM Bcl‐2‐ΔTM and 25 nM ^FluBax‐BH3^ΔB pre‐incubated 1 h, then acetylated peptide (100 μM to 2.3 pM) added for 1 h; binding buffer (50 mM Tris, 100 mM NaCl, pH 8.0); ambient temperature; triplicate", "conditions": "both partners purified"}, "[2]": {"target": "T1, Bcl‐2‐ΔTM (recombinant His‐tagged Bcl‐2 …)", "test": "ITC; 200 μM acetylated peptide injected into 20 μM Bcl‐2‐ΔTM in the cell; binding buffer (50 mM Tris, 100 mM NaCl, pH 8.0); 25°C; one‐site model; Kd as reciprocal of Ka; triplicate", "conditions": "both partners purified"}},
  "data": [
    {"binder": "STKKLSEXLKRIGDELDSNM (HELM PEPTIDE1{[ac].S.T.K.K.L.S.E.[Abu].L.K.R.I.G.D.E.L.D.S.N.M.[am]}$$$$V2.0; SMILES CC[C@H](NC(=O)[C@H](CCC(=O)O)NC(=O)[C@H](CO)NC(=O)[C@H](CC(C)C)NC(=O)[C@H](CCCCN)NC(=O)[C@H](CCCCN)NC(=O)[C@@H](NC(=O)[C@H](CO)NC(C)=O)[C@@H](C)O)C(=O)N[C@@H](CC(C)C)C(=O)N[C@@H](CCCCN)C(=O)N[C@@H](CCCNC(=N)N)C(=O)N[C@H](C(=O)NCC(=O)N[C@@H](CC(=O)O)C(=O)N[C@@H](CCC(=O)O)C(=O)N[C@@H](CC(C)C)C(=O)N[C@@H](CC(=O)O)C(=O)N[C@@H](CO)C(=O)N[C@@H](CC(N)=O)C(=O)N[C@@H](CCSC)C(N)=O)[C@@H](C)CC)", "note": "[^AcBax‐BH3^ΔB]", "values": [
      {"measurement": "IC50", "setting": "[1]", "result": 141, "unit": "nM"},
      {"measurement": "Kd", "setting": "[2]", "result": 191, "unit": "nM"},
      {"measurement": "dH", "setting": "[2]", "result": -5.43, "unit": "kcal/mol"},
      {"measurement": "stoichiometry N", "setting": "[2]", "result": 0.93}
    ]}
  ]
}
